Experiment: label from the status in PepcDB records

Row | Sequence | protein production
1 | MEVSENATTRGSLALVSIILPVHNAEQWLDECLMSVLQQDFEGAMELSVFNDASKDKSRAIIEKWKVKLEDSGISVVIGGHDSPSPRGVGYSKNQAVAQSTGSYLCFLDSDDVMMPQRVRMQYEAAGQHPTSIIGCQVRRDPPDSTERYTRWINHLTSDQLLTQVFTSHGPTVIMPTWFCSRAWFSHVGPFDEGGQGVPEDLLFFYEHLRKGGGVFRVDHSLLLYRYHLYAATHSVLEMTIWTHRVHFLEEQVLPHWKSFTIWNAGKQGRKLYRSLTAASRHKVVAFSDVDENKIRKGFYCYEDSQERPKPKVPILHFQAAQSPFVICVKLDLTGGEFEDNLKSLDLQEGRDFVHFS | failed
2 | MEVSERIIIGNKISKITIIANIALSILKILAGVFGKSSALIADGMHSFSDILSTVVVMLGLKLSEKPADESHPYGHERIEPALTKILAVILLVTALMIFYCGLTTIIGGNYQIPGNITIIAALISIFTKEWMYKYTKKGAEQIESSALLADAWHHRSDAFSSVGTLIGVVGAKLGYPILDPIASIVISLFIAKMAFEIYFKALNQLLDRAADSKTIEEIKKIILSVDGVLEIDVLKTRIHSNKIYVDVEISVDKDLSLIEAHNISENVHSQIESKLKRVKHCMVHVNPYLK | failed
3 | MEVTNGLNLKDTELRLGLPGAQEEQQLELSCVRSNNKRKNNDSTEESAPPPAKTQIVGWPPVRSNRKNNNNKNVSYVKVSMDGAPYLRKIDLKMYKNYPELLKALENMFKFTVGEYSEREGYKGSGFVPTYEDKDGDWMLVGDVPWDMFSSSCQKLRIMKGSEAPTAL | not failed
4 | MEWEIVNLDMTFKVDAPVEEVFRAWTKPSLFKQWFMTTEETNKVAKNQFEINGDWEIIDVREGVEYRAIGTYIDIVSPYKLTFSFKMPQFSELEDIITVEFVDLTGATEVKFNQGIKVPFEGDTNDFEADKTEVKKEMETGYNLMFERLKQLCEG | failed
5 | MEWSLPVDLQEEILSRVPAKSLARWKSTPKQWKGPISIEFLHLLRSTLKFPLLNLHLKSKSIYVTSFTAMVFCYAPPSTKDSRFGIHVQGKPSGFLADEQNKVVVCCKWRSDSINTIYFVGENKHVQVDQRRGDLTLGQSCSFLMNYVPSFVQIQQGTLLAPRT | failed
6 | MEYTVHTPSFRYHDLPYQDCLNKVGTVTLQDYRDDLVALIESLNQPPLLLGHSLGFLVAQMAAKKIEIDGMIFM | failed
7 | MEYYFTAQKLAVGYDNRPLIENIDFSLKRGEILTLIGPNGAGKSTILKSIARQLSLVSGTIYLDKSDVVTMNGNEFAKKMAVVLTDKLKTELMTCYDVVATGRYPYTGRFGVLSDEDKKAVDEAMELVNVSQIKDKDFTKISDGQRQRVMLSRAICQQPEIIVLDEPTSYLDIKYKLEFLSILQRLKRQKNLTVIMSLHELDMAKRVSDHILCIDGRYVDRYGTPEEVFTDQYVSGLFGITAGSFDETGEDLELEKPDGSARIFVIAGGGLGRKSFRSLQRKGIPFATGIIYENDLDYPAAKALSAEIVSARSFEPVDDALIEKAKELIDACEGVICDRTEFGTYEQFNSRLYEYAVSTGKIIKIPFLEEQLAQL | failed
8 | MFAGSIPMYIRVVSITAQSKLQFDMTVTYFENVWSPKVISLGAISAEFVQSNENSGMYIIHYPDKQTAISVFDKIKPEVDEVRTQNRIQITEGKRLFRVD | not failed
9 | MFAMLHVIVDTNWLLLAFSALMFDLPRYTFSLLSWSLVGIFRNSRPGDRWVEAAVSVIIPTFNGGSGLAPTIASLRQQTLSPLEIIIVDDGSTDDTRAVANRARQDGLVDMVICHGTRCGRSAAINAAARFASGDLIFTIDADTVLERDAIARLAHAFNDPRVAGACGNIAIRNESASLWTGLQSVEYMMSISAGKSILDVVGAIACLSGACSMYRRDVFARQGGLDVGPGEDLEFSLRLRRLGYRVRFVPDAWAETDGPVAAVGLLRQRARWDRDALRIRSMMYGELSFFHPLERLPDTLQRLDFIVFDLIPTMSLPFYSMYIVILFGPAHAILFIGAIYFLLLWISLFNMALAFVLFSRSPSFFSLGAAFIFPFYQGIYMKCARFVSYSSEILFATSRRDDYVPPRVRRALFADEVGKVVS | failed
10 | MFAYTLTTLTLCCTSILITSYISKRKGTLMEYMVFIMSFSMSIGLSIGFYLGILFKGELLYSTLLAILISGFIGFLIGLRFHLYTALEGMFSGLMASMMGAMITEMLNAQQAHSILFISLLLTITITMSCVIQLLSENFSTFIQQRFLLLLSISVVIIVAVFTTFPDHTPAPSPGHNQHIH | failed
11 | MFDIGVNLTSSQFAKDRDDVVACAFDAGVNGLLITGTNLRESQQAQKLARQYSSCWSTAGVHPHDSSQWQAATEEAIIELAAQPEVVAIGECGLDFNRNFSTPEEQERAFVAQLRIAADLNMPVFMHCRDAHERFMTLLEPWLDKLPGAVLHCFTGTREEMQACVAHGIYIGITGWVCDERRGLELRELLPLIPAEKLLIETDAPYLLPRDLTPKPSSRRNEPAHLPHILQRIAHWRGEDAAWLAATTDANVKTLFGIAF | not failed
12 | MFEFISLDRDGVLYIAAFLVIIRSVSLYIFSKGNNVDKANVNILMLVFFLLFMTASSLSSWPLIYFLALFFVGSIISFTWFTYSGMITPFGSGLTAISTTLLLCLLSYMLSFYETFVEHGFQAIFIAIFLFSIITSIYSFYYLPFSQNSLFYLNFKRNKKVMHIQSVSEVYSPKVTIHLPCYSEPPEIVINTLNSISALDYDNYEVIVIDNNTRDETLWKPVEKHCSMLGEKFRFYHVPVLAGAKAGALNYALKITSSDTELIAVIDADYITEPDFIRRYVKIFKDENVGFVQTSHDYYNHQSSPVMEGAYYFWTLFHKIELPSYTEINAAFTVGTMCILRRNILEKVGGWDETALTEDSELAVRMHAQGYIGYVFADTVGRGLIPTTFSDMKKQQVRWTAGPVQQLLKHWRLYFGFSSENKMTLNQRVMEIRHSTSRIKPVFSLISLHIMVVVSFFLLSGNVYLSIPYEFIVFFLCMLISTFIEKMAYFRLFNCSGILPVFYHGIMARALEWTFIYGVISSLFGFSMKWDRTNKFENSKSIKRAFLASKIEVVMSVFFFLYSFFLLSGNHSGYNDFVFLTGIACLVKGIGFLCALLVASLLENNLRILEAP | failed
13 | MFELLFLLLPIAALYGWYIGRLSVKKEQESINNKFSRDYVTGLNFLLSNQQEKAVDLFLSMLQKQESENQIATESQFEAELTLGNLFRSRGEVDRALRIHQALDSSLNYSIEQKLLAKQQLAKDFMAAGFYDRAENYYILLLDEPEFAVNSLTQLMVLYQKTNEWKKAINVAEKLLKIDPKTDRIPLSHYYCEYAQAIKSEDEDLYLRLLGKALEYSPLCTRASMLLGDYYLAQGQFSQALTHFEHILVQDPDYISEVLHNIKTCHAALHDFINYELFLIRSNQVKHNSSVDIALAELIEQKDGLIAAHSKLYQQLSKYPSMLIFHRFIYYQINEAEEGSAKESLVLLHNMVGARIKKSFQYRCLNCGYQSYRLSWYCPSCRQWEQIKPINGIDSY | failed
14 | MFELWYIHISLAIVSAIFSILIFLEFKSLRKEFHGKLSGVLLLISVLLLFESVVNAVAFSMWSYGHDPVYVYPSMAIAIVSTSVIILFYYYVAKV | failed
15 | MFEMGIQELVKTIDTNINHMISLSVLNLAQLGIKYGIFKAVASRPSYEELLSQIPVPNKPLLKKLIEHLKALGIIEETPSNLILNGFSYVLKFPKEDYMLLLSDWIPIWEEIYKMVDFALISYSHPYVLMDFDKDADFWDIRLSSSFNKTYRDAIINLGEIREDSYILDLGCGSVSPAYFGKFISEDGKYVGVDYSPGLLEIARERVERNGLPAELKEMDVSLIRTRSKYDVAIMSFLLEYVRDREEVLGKVLEALDSGGKLIIVEAFRDEFENIQAMEFFESLNRSFVGYPAKAEIKKAILREGFDVSFEDYGKSILVVRKL | failed
16 | MFENTLVVIKGAGDIATGVGRRLFRCGFPLVMTEQLQPTPVRRTVAFAEAVYKGETTVEGVTARLIEDPAHVYSTLREGHIPIIPDPEAHIIRVLNPKVVVDAILAKKNLGTAKSNAPIVIGLGPGFTAGKDVHAVIETNRGHNLGRVILNGSAEPNTGVPGVVNGYGSERVLRSPADGAIVPIREIGDFLLKGDVIAVVEGEPVVAPFDGTLRGLVHEKVTVFKGMKIGDVDPRASREHCYTISDKALAISGGVLEAILSHRHVITE | failed
17 | MFERFDSDRSRYASLGVVSSLPSGLIDSIWLIIDLNLKGVIPLNDLLHFDLLNNNGKVTVHFSQENSSVEMAIDLPFSYSTAYPSRIFAFDDGHRETILLPAEMLES | not failed
18 | MFERFTEKAIKVITLAQEEARRLGYNFFGTEHILLSLIGEGTGIAAKVLKSMGINLKDARVEVEKIIGRGSGFVVVEIPFTPRKACAGFVTRGSSTTRHKGIAVRVLEILGADPSNIRTQVNAPILVNSQQALVAEVMETATWQVGNTRRGKLDPVVGRQPQIKRVVQILARRTCRNNACLIGKPGVGKRAIAEGIAQRIASGDVPETIKGKMNVAGNCGWNEIRWRSRGKIEEVYGQSDDIILFIDEMHLLIGAGAVEGAIDAANILKPALERCELQYRKHIENDPALERRFQPVKVPEPTVEEAIQITTVLAKGKEVNKADNEAEEGRPTVTEADNEAE | failed
19 | MFESLNKVINGYGLISGFAIIGVTMAVSYWLSARLTRGRLHGSAIAIFLGLVLSYVGGVATGGQKGLVDVPLMSGIGLLGGAMLRDFAIVATAFGVNVEELRRAGVSGVVSLFLGVGSSFVAGVAVAMAFGYTDAVSLTTIGAGAVTYIVGPVTGAALGASSEVMALSIAAGLVKAILVMVLTPFVAPYIGLNNPRTAVIFGGLMGTSSGVAGGLAATDPKLVPYGCLTAAFYTAIGCLLGPSLLYFSVRGLVG | failed
20 | MFFKQFYDKHLSQASYLIGCQKTGEAMIIDPIRDLSSYIRVADEEGLTITHAAETHIHADFASGIRDVAIKLNANIYVSGESDDTLGYKNMPNHTHFVQHNDDIYVGNIKLKVLHTPGHTPESISFLLTDEGAGAQVPMGLFSGDFIFVGDIGRPDLLEKAVKVEGSSEIGAKQMFKSIESIKDLPDYIQIWPGHGAGSPCGKSLGAIPTSTLGYEKQTNWAFSENNEATFIDKLISDQPAPPHHFAQMKKINQFGMNLYQPYTVYPATNTNRLTFDLRSKEAYHGGHIEGTINIPYDKNFINQIGWYLNYDQEINLIGDYHLVSKATHTLQLIGYDDIAGYQLPQSKIQTRSIHSEDITGNESHILDVRNDNEWNNGHLSQAVHVPHGKLLETDLPFNKNDVIYVHCQSGIRSSIAIGILEHKGYHNIINVNEGYKDIQLS | not failed
21 | MFFMLFVLRIPAAFTLMMVGFLGIATVTTWDAALAMLGSELWGSFSNYGLTVIPLFILVGEIVHYAGYNNSLYHATYKWFGHKRGGLAMTTILASAAFSAISGSNTATAATMSAVAIPAMKEYKYHPLLNAGSVAAGATLGVLIPPSIVLVVYGLYTGQSIGKLFFGNVIPSAILTILILLTVVWICRRHPDWGPEGPRSGWGERFAALPEAIDILILFAIIMYALFTGVVTATEAAAVSCFLALVICGLRRKLTWKKLTGALVDTLRISCMVFMIVAGAVIFAKFLTITRLPYETAEWISSLDLPRWMVLWVILACYIIGGCIMDALAFLLVSLPIFYPLVTQLGYDPIWFGQVITIVTTMGSIMPPIGICCYVVSGMSGIPLGTVFRSGLYYMPSYIASIAILMVSPYWTVLVLADLVK | failed
22 | MFFMQNTKSIYIIIPVHNRREVTLQCLTTLKLNEDLDQYRIVVVDDDSTDGTREAVNAQFPQVIVLEGDGNLWWTGAVKMGMKYAYEQGGELFILLNDDCYPQMGTISKLLKKIDENPNSVIGVQCLDPKSKEPSYGGILTNNNKLQVVKIFHTFNSMTDCDALNGNLLAIPRNIVDKVGFPDAKRFPHHFGDFVYTNRIKKEGYKLFLCNDIVALCEYHYNGLSKKSSQFNRFQELFTPTSQFYWKTEMKGYIELFGIKGIIIYLHKRCLLSSLKVIFLLLDQKLTL | failed
